Reference: patent publication US20190328887A1

Biological target: human oxytocin receptor (human) (UniProt P30559)
Sequence of UniProt P30559 (P30559 whole entry): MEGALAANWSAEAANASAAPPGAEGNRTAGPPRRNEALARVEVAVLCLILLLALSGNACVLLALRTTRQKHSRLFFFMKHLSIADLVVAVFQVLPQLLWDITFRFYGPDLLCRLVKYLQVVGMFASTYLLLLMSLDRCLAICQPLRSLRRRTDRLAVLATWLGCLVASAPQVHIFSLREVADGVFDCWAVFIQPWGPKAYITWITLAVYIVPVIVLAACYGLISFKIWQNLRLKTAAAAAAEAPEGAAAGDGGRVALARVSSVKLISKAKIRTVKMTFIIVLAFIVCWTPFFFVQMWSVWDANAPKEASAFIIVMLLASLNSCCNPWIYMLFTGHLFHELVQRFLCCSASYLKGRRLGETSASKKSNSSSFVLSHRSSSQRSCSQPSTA

- EC50 Ca2+ production: 42 nM
Substance: Oxytocin (peptide)
